# Experimental data reported in paper PMC12551957, “Human monoclonal antibodies to HPV16 show evidence for common developmental pathways and public epitopes” (PLOS Pathogens, 2025).
# Legend:
# [1] = molecular target: soluble HPV16 L1 capsomer (human papillomavirus type 16 (HPV16)); test: cryo-EM structure
# [2] = molecular target: HPV16 L1 (as in the HPV16L1 binding assays and on pseudovirus psV16) (Human papillomavirus type 16; L1 of …, UniProt J3SRV0); test: cell-based or functional assay
# Sequence of HPV16 L1 (as in the HPV16L1 binding assays and on pseudovirus psV16) (P03101 whole entry): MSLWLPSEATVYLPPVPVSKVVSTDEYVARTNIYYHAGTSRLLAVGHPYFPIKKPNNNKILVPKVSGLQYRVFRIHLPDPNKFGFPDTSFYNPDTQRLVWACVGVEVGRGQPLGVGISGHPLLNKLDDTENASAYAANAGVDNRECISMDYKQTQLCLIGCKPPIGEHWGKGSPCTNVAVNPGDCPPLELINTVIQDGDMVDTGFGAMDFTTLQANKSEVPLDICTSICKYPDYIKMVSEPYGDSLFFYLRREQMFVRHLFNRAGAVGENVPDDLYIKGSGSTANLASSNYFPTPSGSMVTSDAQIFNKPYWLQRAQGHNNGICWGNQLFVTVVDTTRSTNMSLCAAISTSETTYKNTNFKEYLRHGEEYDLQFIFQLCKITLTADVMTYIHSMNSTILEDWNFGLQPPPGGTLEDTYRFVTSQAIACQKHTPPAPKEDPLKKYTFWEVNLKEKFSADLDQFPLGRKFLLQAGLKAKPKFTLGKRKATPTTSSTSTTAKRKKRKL
Molecule,stoichiometry N [1],"psV16 neutralization, fold increase of IC50 against the mature antibody [2] [fold]"
soluble HPV16 L1 capsomer (complex),5,–
"D24.1M01 with the germline CDRL2 (YGN) (antibody, V domains shown) VH: QVTLRESGPALVKPTQTLTLTCTISGLSLTTSGVCVSWIRQPPGKALEWLALIDWDDDKYYSTSLRTRLTISKDISKNQVVLTMTNMDPVDTATFFCARTRCTSNWGYYFDSWGRGTRVTVSS VL: QSVLTQPPSVSGAPGQRVTISCTGSASNIGAGYDVHWYQQVPGAAPKLLIYGNSNRPSGVPDRISGSKSGTSASLAISGLQAEDEADYYCQSYDDSLRGWVFGGGTKLTVL",–,5.3
